Data set [1] concerns the molecule itself. Kind of data set: in vitro self-assembly into fibers, seen by TEM and AFM.
Data set [2] concerns the molecule itself. Kind of data set: in vitro self-assembly, TEM.

Residue numbers refer to the chain shown, from its start. In names and notes the source's numbering stands.

B1: PilA19 peptide (19 amino acid N-terminal truncation of G. sulfurreducens PilA) (peptide)
peptide: AIPQFSAYRVKAYNSAASSDLRNLKTALESAFADDQTYPPES
notes: 42 residues, released from the CBD-intein fusion with DTT; also called PilA19 subunit; PilA19 monomer
Consider B1, for which the binding result in data set [1] was “binds”.

B2: PilA19-A20C cysteine-modified recombinant pilin (peptide)
peptide: B1 peptide with A1C
notes: 42 residues; The N-terminal alanine of PilA19, position 20 of full-length mature PilA, is replaced by cysteine; also called cysteine-modified subunit; PilA19-A20C monomer
With B2, in data set [2], the binding result is “binds”.

Source of the values: patent US20140239237A1 (BOARD OF TRUSTEES OF MICHIGAN STATE UNIVERSITY, published 2014).
